The text below walks through data of patent US20210207126A1 (ADAGENE, published 2021).

Residue numbers refer to the chain shown, from its start.

Sequences and labels used below:
T1: Recombinant human CTLA4-Fc (human, UniProt P16410 36-161, limits assumed)
T1 construct: Coated on the ELISA plate at 1 ug/mL; also called its antigen; not shown: Fc part
T1 sequence (looked up): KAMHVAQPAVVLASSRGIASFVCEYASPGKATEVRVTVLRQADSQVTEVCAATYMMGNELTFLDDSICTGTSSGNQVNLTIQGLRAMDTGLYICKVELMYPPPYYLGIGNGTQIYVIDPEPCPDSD

B1: TY22404 (antibody, V domains shown)
VH: EVQLVESGGGLVQPGGSLRLSCAASGYSISSGYHWSWIRQAPGKGLEWLARIDWDDDKYYSTSLKSRLTISRDNSKNTLYLQLNSLRAEDTAVYYCARSYVYFDYWGQGTLVTVSS
VL: EVGSYPNPSSDCVPYYYACAYSGRSAGGGGSPLGLAGSGGSDIQLTQSPSSLSASVGDRVTITCRASQSVRGRFLAWYQQKPGKAPKLLIYDASNRATGIPSRFSGSGSGTDFTLTISSLQPEDFATYYCQQSSSWPPTFGQGTKVEIKR
notes: IgG1 from HEK293F cells; peptide fused to the N-terminus of the light chain of TY21580; also called masking peptide B13197
B2: TY22402 (antibody, V domains shown)
VH: B1 VH
VL: EVGSYIVHHSDCDAFYPYCDSSGRSAGGGGSPLGLAGSGGSDIQLTQSPSSLSASVGDRVTITCRASQSVRGRFLAWYQQKPGKAPKLLIYDASNRATGIPSRFSGSGSGTDFTLTISSLQPEDFATYYCQQSSSWPPTFGQGTKVEIKR
notes: IgG1 from HEK293F cells; peptide fused to the N-terminus of the light chain of TY21580; also called masking peptide B13180
B3: TY22401 (antibody, V domains shown)
VH: B1 VH
VL: EVGSYNFVADSCPDHPYPCSASGRSAGGGGSPLGLAGSGGSDIQLTQSPSSLSASVGDRVTITCRASQSVRGRFLAWYQQKPGKAPKLLIYDASNRATGIPSRFSGSGSGTDFTLTISSLQPEDFATYYCQQSSSWPPTFGQGTKVEIKR
notes: IgG1 from HEK293F cells; masking and cleavage peptide fused to the N-terminus of the light chain of TY21580; also called masking peptide B13189
B4: TY21242 (antibody, V domains shown)
VH: EVQLVESGGGLVQPGGSLRLSCAASGFSLSTGGVGVGWIRQAPGKGLEWLALIDWADDKYYSPSLKSRLTISRDNSKNTLYLQLNSLRAEDTAVYYCARGGSDTVIGDWFAYWGQGTLVTVSS
VL: DIQLTQSPSSLSASVGDRVTITCRASQSIGSYLAWYQQKPGKAPKLLIYDASNLETGVPSRFSGSGSGTDFTLTISSLQPEDFATYYCQQGYYLWTFGQGTKVEIK
notes: also called parental antibody TY21242; parental CD137 antibody
B5: TY22598 (antibody, V domains shown)
VH: B4 VH
VL: EVGSYSNNFASCLWRHRSCADSGRSAGGGGSPLGLAGSGGSDIQLTQSPSSLSASVGDRVTITCRASQSIGSYLAWYQQKPGKAPKLLIYDASNLETGVPSRFSGSGSGTDFTLTISSLQPEDFATYYCQQGYYLWTFGQGTKVEIK
notes: Full IgG4 from mammalian cells; peptide fused to the N-terminus of the light chain of TY21242
B6: TY22596 (antibody, V domains shown)
VH: B4 VH
VL: EVGSYYHDYDDCRVLPRRCFNSGRSAGGGGSPLGLAGSGGSDIQLTQSPSSLSASVGDRVTITCRASQSIGSYLAWYQQKPGKAPKLLIYDASNLETGVPSRFSGSGSGTDFTLTISSLQPEDFATYYCQQGYYLWTFGQGTKVEIK
notes: as for B5
B7: TY22591 (antibody, V domains shown)
VH: B4 VH
VL: EVGSYSSTHAHCHHSPANCISSGRSAGGGGSPLGLAGSGGSDIQLTQSPSSLSASVGDRVTITCRASQSIGSYLAWYQQKPGKAPKLLIYDASNLETGVPSRFSGSGSGTDFTLTISSLQPEDFATYYCQQGYYLWTFGQGTKVEIK
notes: as for B5
B8: TY22599 (antibody, V domains shown)
VH: B4 VH
VL: B6 VL with Y6T, H7D, D8N, D11Y, R13P, V14R, P16R, R18K, F20Y, N21H
notes: as for B5
B9: TY22594 (antibody, V domains shown)
VH: B4 VH
VL: B6 VL with Y6D, H7T, D11F, R13P, V14I, P16R, R17H, F20D, N21S
notes: as for B5
B10: TY22595 (antibody, V domains shown)
VH: B4 VH
VL: EVGSYNDYNYHCKWRPSRCHNSGRSAGGGGSPLGLAGSGGSDIQLTQSPSSLSASVGDRVTITCRASQSIGSYLAWYQQKPGKAPKLLIYDASNLETGVPSRFSGSGSGTDFTLTISSLQPEDFATYYCQQGYYLWTFGQGTKVEIK
notes: as for B5
B11: TY22775 (antibody, V domains shown)
VH: B1 VH
VL: EVGHSDCDAFYPYCDSSGRSAGGGGTPLGLAGSGGSDIQLTQSPSSLSASVGDRVTITCRASQSVRGRFLAWYQQKPGKAPKLLIYDASNRATGIPSRFSGSGSGTDFTLTISSLQPEDFATYYCQQSSSWPPTFGQGTKVEIKR
notes: TY22402 with the masking peptide shortened to 16 residues; expressed in mammalian cells; isotype not restated (parent construct IgG1)
B12: TY22776 (antibody, V domains shown)
VH: B1 VH
VL: B11 VL with H4S, D8V, A9P, F10Y, P12Y, Y13A, D15A, S16Y
notes: TY22404 with the masking peptide shortened to 16 residues; expressed in mammalian cells; isotype not restated (parent construct IgG1)
B13: TY22566 (antibody, V domains shown)
VH: B1 VH
VL: B1 VL with S9A
notes: IgG1; derived from B13197 to remove a potential glycosylation site
B14: TY22565 (antibody, V domains shown)
VH: B1 VH
VL: B1 VL with N7Q
notes: as for B13
B15: TY22563 (antibody, V domains shown)
VH: B1 VH
VL: B2 VL with I6Y, V7S, H8A, H9Y, S10P, D11A, A14S, F15H, D20Q
notes: IgG1; derived from B13192 to remove a potential glycosylation site
B16: TY22564 (antibody, V domains shown)
VH: B1 VH
VL: B2 VL with I6Y, V7S, H8A, H9Y, S10P, D11A, A14S, F15H, D20N, S22A
notes: as for B15

The target in the first assay is T1, Recombinant human CTLA4-Fc. As to the kind of experiment: ELISA on plate-coated recombinant human CTLA4-Fc, protease cleavage experiment, no treatment. The method, then:
(§1) Recombinant human CTLA4-Fc was diluted to 1 μg/mL in PBS and coated on a Maxisorp plate at 4° C. overnight. Plates were blocked with PBS supplemented with 3% non-fat milk at 37° C. for 1 hour. After washing, 100 μL of 3-fold serial dilutions of antibodies were added to each well. After incubation at 37° C. for 1 hour, plates were washed four times, and 100 μL HRP conjugated anti-human IgG (Fab specific) (1:6000 dilution) was added to each well. Plates were incubated at 37° C. for 1 hour, washed four times, and then 50 μL TMB substrate solution was added to each well, and the plate was incubated at room temperature. Absorbance at 450 nm was measured after the reactions were stopped with 50 μL H₂SO₄ per well. The EC₅₀ was evaluated by fitting the ELISA data using the asymmetrical sigmoidal (five-parameter logistic equation) model of GraphPad Prism 6 software.
The purified activatable antibodies were treated with the proteases which recognize the cleavage sequences, and were then tested to determine whether removal of the masking peptide restored their activity.
Turning to B1, the “masking efficiency (EC50 / EC50 of parental TY21580)” value was determined as 216 fold.

In a further assay the target is T1, Recombinant human CTLA4-Fc. As to the kind of experiment: ELISA on plate-coated recombinant human CTLA4-Fc as in Example 3 (FIG. 25). The method, then:
as §1
Turning to B1, the “masking efficiency (EC50 / EC50 of parental TY21580)” value amounted to 469 fold.

The next assay has as its target T1, Recombinant human CTLA4-Fc. As to the kind of experiment: ELISA on plate-coated recombinant human CTLA4-Fc, before protease cleavage, data batch 2. The protocol: as §1
(In general: An ELISA detects its analyte on a solid surface through an enzyme-linked reagent.)
B2: the “masking efficiency (EC50 / EC50 of parental TY21580)” value was found to be 377 fold.

Turning to B3, the “masking efficiency (EC50 / EC50 of parental TY21580)” value was 48 fold.

As to B1, the “masking efficiency (EC50 / EC50 of parental TY21580)” value turned out to be 385 fold.

A further assay deals with T2, human CD137 displayed on yeast cells (human, UniProt Q07011 24-186, limits assumed).
T2 construct: Yeast cells displaying human CD137 on their surface; also called human CD137 on the cell surface
As to the kind of experiment: flow cytometry on yeast cells displaying human CD137, PE anti-human Fc (column head prints EC50 over KD (nM)). The method, then: (§2) The masking efficiency was then measured through flow cytometry. Briefly, yeast cells displaying human CD137 on their surface washed twice with PBSA buffer, and 50 μL (1×10\hat{ }6) cells were dispensed into each well of a 96 well plate. Cells were then incubated with 3-fold serial dilutions of antibodies for 1 hour on ice, washed once with PBSA buffer, and then incubated with 100 μL of PE conjugated mouse anti-human Fc (1 μg/ml) for 30 minutes on ice. The cells were then washed once prior to analysis by flow cytometry (Beckman® CytoFlex).
In general terms: A flow cytometer gives signals particle by particle.
B4 returned a dissociation constant Kd of 0.28 nM.

B5 displayed a Kd of 8.61 nM.

B6 displayed a Kd of 5.86 nM.

In turn, B7 displayed a Kd of 10.8 nM.

In turn, B8 showed a Kd of 98.1 nM.

On to B9, for which binding was put at a Kd of 23.6 nM.

Take B10: the affinity, expressed as Kd, was 107 nM.

The target in the next assay is T1, Recombinant human CTLA4-Fc. As to the kind of experiment: ELISA on plate-coated recombinant human CTLA4-Fc as in Example 3 (FIG. 24B). The protocol:
as §1
Take B2: the “masking efficiency (EC50 / EC50 of parental TY21580)” value amounted to 554 fold.

For the molecule B1, the “masking efficiency (EC50 / EC50 of parental TY21580)” value was determined as 572 fold.

In the next assay the target is T1, Recombinant human CTLA4-Fc. As to the kind of experiment: ELISA on plate-coated recombinant human CTLA4-Fc, before protease cleavage, data batch 1. The protocol:
as §1
With B2, the “masking efficiency (EC50 / EC50 of parental TY21580)” value was 2210 fold.

As to B3, the “masking efficiency (EC50 / EC50 of parental TY21580)” value is 110 fold.

On to B1, for which the “masking efficiency (EC50 / EC50 of parental TY21580)” value was 826 fold.

The target of another assay is T1, Recombinant human CTLA4-Fc. As to the kind of experiment: ELISA on plate-coated recombinant human CTLA4-Fc as in Example 3 (FIG. 24A). The method, then: as §1
Regarding B2, the “masking efficiency (EC50 / EC50 of parental TY21580)” value is 243 fold.

On to B11, for which the “masking efficiency (EC50 / EC50 of parental TY21580)” value is 168 fold.

B1: the “masking efficiency (EC50 / EC50 of parental TY21580)” value was found to be 308 fold.

In the case of B12, the “masking efficiency (EC50 / EC50 of parental TY21580)” value came out at 296 fold.

Another assay addresses T2, human CD137 displayed on yeast cells. As to the kind of experiment: flow cytometry on yeast cells displaying human CD137, PE anti-human Fc. The protocol:
as §2
As for B4, the “masking efficiency (against parental TY21242)” value is 1 fold.

For the molecule B5, the “masking efficiency (against parental TY21242)” value came to 30.5 fold.

Turning to B6, the “masking efficiency (against parental TY21242)” value came out at 20.8 fold.

For the molecule B7, the “masking efficiency (against parental TY21242)” value stood at 38.3 fold.

For B8, the “masking efficiency (against parental TY21242)” value came out at 348 fold.

Turning to B9, the “masking efficiency (against parental TY21242)” value was found to be 83.7 fold.

In the case of B10, the “masking efficiency (against parental TY21242)” value amounted to 379 fold.

A further assay deals with T1, Recombinant human CTLA4-Fc. As to the kind of experiment: ELISA on plate-coated recombinant human CTLA4-Fc, before protease cleavage, third block of Table 6 (set of FIG. 7C).
Take B13: the “masking efficiency (EC50 / EC50 of parental TY21580)” value is 489 fold.

For B14, the “masking efficiency (EC50 / EC50 of parental TY21580)” value was found to be 632 fold.

With B15, the “masking efficiency (EC50 / EC50 of parental TY21580)” value worked out at 144 fold.

For the molecule B16, the “masking efficiency (EC50 / EC50 of parental TY21580)” value turned out to be 117 fold.

The Kd is the free concentration of one partner at which half of the binding sites on the other are occupied at equilibrium, for simple one-to-one binding.
